Like-named read-outs stand apart in the source and are kept apart here.
Experiments:
Assay in all cases: AFM single-molecule force spectroscopy
[1] = target: T1, reovirus T1L σ3_(3)μ1_(3) heterohexamer (mammalian orthoreovirus type 1 Lang …, UniProt P07939 1-365; P11077 1-708)
T1 sequence (looked up) 1: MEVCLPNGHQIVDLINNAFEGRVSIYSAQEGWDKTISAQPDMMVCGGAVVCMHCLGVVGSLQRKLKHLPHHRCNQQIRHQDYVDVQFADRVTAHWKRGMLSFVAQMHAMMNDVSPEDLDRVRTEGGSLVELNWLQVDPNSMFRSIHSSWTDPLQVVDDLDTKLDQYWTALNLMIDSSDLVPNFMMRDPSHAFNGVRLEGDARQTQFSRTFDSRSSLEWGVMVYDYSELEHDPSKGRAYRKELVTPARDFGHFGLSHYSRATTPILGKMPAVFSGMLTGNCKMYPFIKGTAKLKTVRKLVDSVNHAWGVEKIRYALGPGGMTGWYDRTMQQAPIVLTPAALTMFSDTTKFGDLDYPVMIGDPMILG
T1 sequence (looked up) 2: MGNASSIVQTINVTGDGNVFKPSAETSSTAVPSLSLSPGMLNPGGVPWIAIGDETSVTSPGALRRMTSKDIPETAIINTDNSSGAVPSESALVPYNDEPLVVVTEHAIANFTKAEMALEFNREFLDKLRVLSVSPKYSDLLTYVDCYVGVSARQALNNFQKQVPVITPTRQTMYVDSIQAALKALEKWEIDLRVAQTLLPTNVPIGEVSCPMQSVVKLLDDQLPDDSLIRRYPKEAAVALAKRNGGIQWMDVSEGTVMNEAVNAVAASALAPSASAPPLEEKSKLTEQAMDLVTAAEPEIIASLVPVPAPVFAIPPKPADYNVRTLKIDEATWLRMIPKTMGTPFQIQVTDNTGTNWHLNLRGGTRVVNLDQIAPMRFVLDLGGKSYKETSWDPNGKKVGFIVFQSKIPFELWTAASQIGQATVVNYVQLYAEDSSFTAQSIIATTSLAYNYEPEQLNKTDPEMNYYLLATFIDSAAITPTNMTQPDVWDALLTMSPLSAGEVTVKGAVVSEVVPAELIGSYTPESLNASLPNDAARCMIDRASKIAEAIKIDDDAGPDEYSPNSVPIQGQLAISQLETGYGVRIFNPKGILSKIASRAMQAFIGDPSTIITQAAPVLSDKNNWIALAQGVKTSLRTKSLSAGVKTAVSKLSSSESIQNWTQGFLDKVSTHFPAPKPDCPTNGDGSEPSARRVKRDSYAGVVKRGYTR

[2] = target: T1, reovirus T1L σ3_(3)μ1_(3) heterohexamer; remark: listed apart in the source
[3] = target: reovirus type 1 Lang (T1L) virion (mammalian orthoreovirus type 1 Lang (T1L)) (UniProt P07939)

B1: His-tagged human Nogo-66 receptor 1 (amino acids 1-310) (receptor, UniProt Q9BZR6 27-310, looked up)
chain: CPGACVCYNEPKVTTSCPQQGLQAVPVGIPAASQRIFLHGNRISHVPAASFRACRNLTILWLHSNVLARIDAAAFTGLALLEQLDLSDNAQLRSVDPATFHGLGRLHTLHLDRCGLQELGPGLFRGLAALQYLYLQDNALQALPDDTFRDLGNLTHLFLHGNRISSVPERAFRGLHSLDRLLLHQNRVAHVHPHAFRDLGRLMTLYLFANNLSALPTEALAPLRALQYLRLNDNPWVCDCRARPLWAWLQKFRGSSSEVPCSLPQRLAGRDLKRLAANDLQGCA
- koff [1]: 0.32 ± 0.21 s⁻¹
- kon [1]: 2.17e+06 ± 200000 M⁻¹ s⁻¹
- koff [2]: 3.51 ± 2.02 s⁻¹

B2: Fc-tagged mouse NgR1 (Fc fusion)
chain: CPGACVCYNEPKVTTSCPQQGLQAVPTGIPASSQRIFLHGNRISHVPAASFQSCRNLTILWLHSNALARIDAAAFTGLTLLEQLDLSDNAQLHVVDPTTFHGLGHLHTLHLDRCGLRELGPGLFRGLAALQYLYLQDNNLQALPDNTFRDLGNLTHLFLHGNRIPSVPEHAFRGLHSLDRLLLHQNHVARVHPHAFRDLGRLMTLYLFANNLSMLPAEVLMPLRSLQYLRLNDNPWVCDCRARPLWAWLQKFRGSSSEVPCNLPQRLADRDLKRLAASDLEGCAVASGPFRPIQTSQLTDEELLSLPKCCQPDAADKASVLEPGRPASAGNALKGRVPPGDTPPGNGSGPRHINDSPFGTLPSSAEPPLTALRPGGSEPPGLPTTGPRRRPGCSRKNRTRSHCRLGQAGSGASGTGDAEGS
- Kd [3]: 93.5 nM
- koff [3]: 0.65 s⁻¹
- kon [3]: 6.94e+06 M⁻¹ s⁻¹

B3: His-tagged mouse Nogo-66 receptor 1 (amino acids 1-447) (receptor, UniProt Q99PI8 27-447, looked up)
chain: CPGACVCYNEPKVTTSCPQQGLQAVPTGIPASSQRIFLHGNRISHVPAASFQSCRNLTILWLHSNALARIDAAAFTGLTLLEQLDLSDNAQLHVVDPTTFHGLGHLHTLHLDRCGLRELGPGLFRGLAALQYLYLQDNNLQALPDNTFRDLGNLTHLFLHGNRIPSVPEHAFRGLHSLDRLLLHQNHVARVHPHAFRDLGRLMTLYLFANNLSMLPAEVLMPLRSLQYLRLNDNPWVCDCRARPLWAWLQKFRGSSSEVPCNLPQRLADRDLKRLAASDLEGCAVASGPFRPIQTSQLTDEELLSLPKCCQPDAADKASVLEPGRPASAGNALKGRVPPGDTPPGNGSGPRHINDSPFGTLPSSAEPPLTALRPGGSEPPGLPTTGPRRRPGCSRKNRTRSHCRLGQAGSGASGTGDAEGS
- Kd [1]: 76.8 ± 51.8 nM
- koff [1]: 0.23 ± 0.12 s⁻¹
- kon [1]: 2.99e+06 ± 460000 M⁻¹ s⁻¹

From PMC11441417 (Nanoscale Horizons, 2024)
